Here are results for one molecule from doi:10.1101/2020.12.03.409318 (bioRxiv, 2020).

This test concerns the target RBD-mFc (Sino Biologicals) (SARS-CoV-2, wild type (Wuhan-Hu-1 …, UniProt P0DTC2)). Briefly: BLI. On the technique in general: BLI is a label-free optical method that tracks binding on a fibre tip over time.

B1: STE90-C11 Fab (Fab, V domains shown)
VH: QVQLVESGGGLVQPGGSLRLSCAASGLTVSSNYMSWVRQAPGKGLEWVSVIYSGGSTYYADSVKGRFTISRDDSKNTLYLQMNSLRAEDTAVYYCARDVADAFDIWGQGTMVTVSS
VL: DIVMTQSPSFLSASVGDRVTITCRASQGISSYLAWYQQKPGKAPKLLIYAASTLQSGVPSRFSGSGSGTEFTLTISSLQPEDFATYYCQQLNSYPPFTFGPGTKVDIK
Turning to B1, the dissociation constant Kd amounted to 8.1 nM.

Broadly, the Kd is the constant that tells how readily two partners part at equilibrium. Read a low Kd as higher affinity.
